The values below come from the Immune Epitope Database (IEDB).

In one test the target is HLA-A*02:02. As to the kind of experiment: IEDB peptide-MHC binding, purified MHC/competitive/radioactivity; ≥ and ≤ were set here for values at or beyond the usual limits of such assays.
The target of a further test is HLA-A*02:03. The test is described as above.
The next test has as its target HLA-A*02:06. The experiment in a line: IEDB peptide-MHC binding, cellular MHC/competitive/fluorescence; ≥ and ≤ were set here for values at or beyond the usual limits of such assays.
The next test concerns the target HLA-A*68:02. The description is as above.
The target in another test is HLA-A*02:01. The experiment in a line: IEDB peptide-MHC binding, purified MHC/competitive/radioactivity; ≥ and ≤ were set here for values at or beyond the usual limits of such assays.
The mark [1] stands for this setting: source organism: Influenza A virus.
Where [2] appears, read: source organism: Vaccinia virus WR.
Setting [3] is: source organism: Mammarenavirus whitewaterense.
The mark [4] stands for this setting: source organism: Mammarenavirus brazilense.
Setting [5] is: source organism: Mammarenavirus choriomeningitidis.
The mark [6] stands for this setting: source organism: Hepacivirus hominis.

Broadly, the IC50 is the concentration at which inhibition is half-maximal. On to ALANTIEV, for which the IC50 in the test with HLA-A*02:02 (setting [1]) came out at 162 nM; with HLA-A*02:03 (setting [1]), 59 nM; in the test with HLA-A*02:06 (setting [1]), 9130 nM; with HLA-A*68:02 (setting [1]), 59300 nM.

For ALKNSQAEL, the IC50 was 71 nM with HLA-A*02:02 (setting [2]); 1740 nM in the test with HLA-A*02:01 (setting [2]); 17 nM in the test with HLA-A*02:03 (setting [2]); 33000 nM with HLA-A*02:06 (setting [2]); no less than 70000 nM with HLA-A*68:02 (setting [2]).

Turning to ALTDVEKRI, the IC50 with HLA-A*02:02 (setting [2]) came to 74 nM; with HLA-A*02:01 (setting [2]), 1150 nM; with HLA-A*02:03 (setting [2]) it was 1490 nM; with HLA-A*02:06 (setting [2]), 14300 nM; with HLA-A*68:02 (setting [2]), 23900 nM.

On to DMDFDLNIFM, for which the IC50 was 1150 nM with HLA-A*02:02 (setting [2]); 1750 nM with HLA-A*02:01 (setting [2]); 5000 nM with HLA-A*02:03 (setting [2]); 5320 nM with HLA-A*02:06 (setting [2]); 7300 nM with HLA-A*68:02 (setting [2]).

As to DTGKKELALT, the IC50 with HLA-A*02:02 (setting [2]) came out at 1040 nM; with HLA-A*02:01 (setting [2]) it was 1680 nM; with HLA-A*02:03 (setting [2]), 262 nM; with HLA-A*02:06 (setting [2]), 6800 nM; with HLA-A*68:02 (setting [2]) it was 10000 nM.

On to DVDMDFDLNI, for which the IC50 with HLA-A*02:02 (setting [2]) is 2040 nM; in the test with HLA-A*02:01 (setting [2]), 4560 nM; with HLA-A*02:03 (setting [2]) it was 1520 nM; in the test with HLA-A*02:06 (setting [2]), 5830 nM; in the test with HLA-A*68:02 (setting [2]), 8840 nM.

Consider FLVIAINAM, for which the results for the IC50 with HLA-A*02:06 (setting [2]) and in the test with HLA-A*68:02 (setting [2]) were no less than 70000 nM and 23300 nM, respectively.

For the sequence GLSASDVDM, the IC50 with HLA-A*02:02 (setting [2]) was 497 nM; with HLA-A*02:01 (setting [2]), 1720 nM; in the test with HLA-A*02:03 (setting [2]), 3540 nM; with HLA-A*02:06 (setting [2]), 13800 nM; with HLA-A*68:02 (setting [2]) it was no less than 70000 nM.

For the sequence GLTTHCTKL, the IC50 in the test with HLA-A*02:02 (setting [2]) was 100 nM; with HLA-A*02:01 (setting [2]) it was 613 nM; with HLA-A*02:03 (setting [2]) it was 30 nM; with HLA-A*02:06 (setting [2]) it was 31600 nM; with HLA-A*68:02 (setting [2]) it was no less than 70000 nM.

On to GMMQNDYGGM, for which the IC50 with HLA-A*02:02 (setting [2]) was 103 nM; with HLA-A*02:01 (setting [2]), 705 nM; in the test with HLA-A*02:03 (setting [2]), 589 nM; with HLA-A*02:06 (setting [2]) it was 12000 nM; in the test with HLA-A*68:02 (setting [2]), 26400 nM.

For HIGHHYIWI, the IC50 amounted to 2560 nM with HLA-A*02:02 (setting [2]); 2990 nM with HLA-A*02:01 (setting [2]); 899 nM with HLA-A*02:03 (setting [2]); 25300 nM with HLA-A*02:06 (setting [2]); 19900 nM in the test with HLA-A*68:02 (setting [2]).

For the sequence HLENDKIEDL, the IC50 was 526 nM in the test with HLA-A*02:02 (setting [2]); 1800 nM with HLA-A*02:01 (setting [2]); 414 nM with HLA-A*02:03 (setting [2]); 10600 nM with HLA-A*02:06 (setting [2]); 27100 nM in the test with HLA-A*68:02 (setting [2]).

In the case of IINSVSIIL, the IC50 with HLA-A*02:02 (setting [2]) was determined as 705 nM; with HLA-A*02:01 (setting [2]), 2090 nM; with HLA-A*02:03 (setting [2]), 2900 nM; in the test with HLA-A*02:06 (setting [2]), 25900 nM; with HLA-A*68:02 (setting [2]), 29900 nM.

In the case of ILANERYRSA, the IC50 was found to be 104 nM in the test with HLA-A*02:02 (setting [2]); 802 nM with HLA-A*02:01 (setting [2]); 18 nM with HLA-A*02:03 (setting [2]); 7810 nM in the test with HLA-A*02:06 (setting [2]); 26500 nM with HLA-A*68:02 (setting [2]).

As for INISGYNLSL, the IC50 worked out at 179 nM in the test with HLA-A*02:02 (setting [3]); 1830 nM with HLA-A*02:01 (setting [3]); 1360 nM with HLA-A*02:03 (setting [3]); 11400 nM in the test with HLA-A*02:06 (setting [3]); 17400 nM in the test with HLA-A*68:02 (setting [3]).

With KCFGNTALA, the IC50 with HLA-A*02:02 (setting [4]) was 31 nM; with HLA-A*02:01 (setting [4]), 3330 nM; in the test with HLA-A*02:03 (setting [4]), 1090 nM; in the test with HLA-A*02:06 (setting [4]), no less than 70000 nM; with HLA-A*68:02 (setting [4]), 25900 nM.

For KCMSAALKNL, the IC50 with HLA-A*02:02 (setting [5]) amounted to 58 nM; in the test with HLA-A*02:01 (setting [5]), 1560 nM; in the test with HLA-A*02:03 (setting [5]) it was 193 nM; with HLA-A*02:06 (setting [5]), 14000 nM; with HLA-A*68:02 (setting [5]), 43500 nM.

With KIMSGEKPSV, the IC50 in the test with HLA-A*02:02 (setting [6]) was 411 nM; in the test with HLA-A*02:01 (setting [6]), 1120 nM; with HLA-A*02:03 (setting [6]) it was 1390 nM; with HLA-A*02:06 (setting [6]), 9470 nM; in the test with HLA-A*68:02 (setting [6]), no less than 70000 nM.

Regarding KLDDTGKKEL, the IC50 stood at 101 nM with HLA-A*02:02 (setting [2]); 450 nM with HLA-A*02:01 (setting [2]); 139 nM in the test with HLA-A*02:03 (setting [2]); 5530 nM with HLA-A*02:06 (setting [2]); 35200 nM with HLA-A*68:02 (setting [2]).

Take KLFKRERDA: the IC50 with HLA-A*02:02 (setting [2]) stood at 2390 nM; with HLA-A*02:01 (setting [2]), 859 nM; with HLA-A*02:03 (setting [2]), 985 nM; with HLA-A*02:06 (setting [2]), 14900 nM; with HLA-A*68:02 (setting [2]), 35800 nM.

For the sequence KLFKRERDAI, the 50% inhibitory concentration (IC50) with HLA-A*02:02 (setting [2]) is 92 nM; with HLA-A*02:01 (setting [2]), 1480 nM; with HLA-A*02:03 (setting [2]), 120 nM; with HLA-A*02:06 (setting [2]) it was 14200 nM; with HLA-A*68:02 (setting [2]), no less than 70000 nM.

Regarding KLKVDSDSGL, the half-maximal inhibitory concentration (IC50) with HLA-A*02:02 (setting [2]) is 75 nM; in the test with HLA-A*02:01 (setting [2]) it was 2360 nM; in the test with HLA-A*02:03 (setting [2]) it was 56 nM; with HLA-A*02:06 (setting [2]) it was 10000 nM; with HLA-A*68:02 (setting [2]), 28200 nM.

For the sequence LINLVQYRIL, the IC50 with HLA-A*02:02 (setting [2]) was 2120 nM; in the test with HLA-A*02:01 (setting [2]), 2220 nM; with HLA-A*02:03 (setting [2]) it was 2250 nM; with HLA-A*02:06 (setting [2]) it was 15900 nM; in the test with HLA-A*68:02 (setting [2]), 30000 nM.
